Test results taken from the RNAGym collection of RNA variant scans (doi:10.1101/gr.219683.116).

B1: mRNA-splicing (parent)
chain: AGUUGCUGCUGGGAGCUCCAGCACAGUGAAAUGGACAGAAGGGCAGAGCAA

Variants of: B1
Assay: exon inclusion enrichment index; higher = more inclusion; WT1 exon 5 minigene, HEK293

Row | Variant | exon inclusion enrichment index
1 | C6A U7A C9A U10A U27A | 0.945
2 | C6A U7A C9A U10A U27G | 0.189
3 | C6A U7A C9A U10A U27C | 1.97
4 | C6A U7C C9A U10C A20C | 3.02
5 | C6A U7C C9A U10C A20G | 3.85
6 | C6A U7C C9A U10C A20U | 3.39
7 | C6A U7A C9A U10A G48U | 1.17
8 | C6A U7A C9A U10A G48C | 1.15
9 | C6A U7A C9A U10A G48A | 1.3
10 | C6A U7C C9A U10C A39G | 2.38
11 | C6A U7C C9A U10C A39C | 1.37
12 | C6A U7C C9A U10C A25G | 4.53
13 | C6A U7C C9A U10C A25U | 3.47
14 | C6A U7C C9A U10C A25C | 4.45
15 | C6A U7A C9A U10A G42U G43A | 1.42
16 | C6A U7A C9A U10A G42U G43C | 0.532
17 | C6A U7A C9A U10A G42U G43U | 1.61
18 | C6A U7C C9A U10C A31G U32G | 2.7
19 | C6A U7C C9A U10C A31G U32C | 4.39
20 | C6A U7C C9A U10C A31G U32A | 5.2
21 | C6A U7C C9A U10C A39C A40U | 3.22
22 | C6A U7C C9A U10C A39C A40G | 3.55
23 | C6A U7C C9A U10C A39C A40C | 3.31
24 | C6A U7A G8A C9G U10A | 0.2

Row | Variant | exon inclusion enrichment index
25 | C6A U7C C9A U10C A20U G21C | 3.73
26 | C6A U7C C9A U10C A20U G21A | 2.77
27 | C6A U7C C9A U10C A20U G21U | 2.83
28 | C6A U7A C9A U10A U32C | 1.37
29 | C6A U7A C9A U10A U32A | 0.442
30 | C6A U7A C9A U10A U32G | 0.041
31 | C6A U7A G8A U10A | 0.0891
32 | C6A U7C C9A U10C A30C A31U | 3.15
33 | C6A U7C C9A U10C A30C A31C | 4.36
34 | C6A U7C C9A U10C A30C A31G | 3.94
35 | C6A U7C C9A U10C A14C G15U | 2.32
36 | C6A U7C C9A U10C A14C G15A | 2.13
37 | C6A U7C C9A U10C A14C G15C | 1.7
38 | C6A U7A G8U C9A U10C | 1.38
39 | C6A U7A G8U C9A U10A | 0.117
40 | C6A U7A C9A U10A G28U A29U | 0.122
41 | C6A U7A C9A U10A G28U A29C | 0.539
42 | C6A U7A C9A U10A G28U A29G | 0.627
43 | C6A U7A C9A U10A G34C A35C | 0.0588
44 | C6A U7A C9A U10A G34C A35U | 0.104
45 | C6A U7A C9A U10A G34C A35G | 0.484
46 | C6A U7A C9A U10A G26C U27C | 2.32
47 | C6A U7A C9A U10A G26C U27G | 2.09
48 | C6A U7A C9A U10A G26C U27A | 0.842

Row | Variant | exon inclusion enrichment index
49 | C6A U7A C9A U10A U27C G28A | 0.886
50 | C6A U7A C9A U10A U27C G28C | 1.36
51 | C6A U7A C9A U10A U27C G28U | 0.4
52 | C6A U7C C9A U10C A25C G26A | 4.93
53 | C6A U7C C9A U10C A25C G26U | 3.89
54 | C6A U7C C9A U10C A25C G26C | 4.09
55 | C6A U7C C9A U10C A29C A30C | 3.72
56 | C6A U7C C9A U10C A29C A30G | 4.07
57 | C6A U7C C9A U10C A29C A30U | 2.76
58 | C6A U7A C9A U10A G26C | 1.1
59 | C6A U7A C9A U10A G26U | 0.794
60 | C6A U7A C9A U10A G26A | 1.08
61 | C6A U7A C9A U10A G28C A29C | 0.683
62 | C6A U7A C9A U10A G28C A29U | 0.358
63 | C6A U7A C9A U10A G28C A29G | 1.45
64 | C6A U7A C9A U10A G41U G42C | 1.58
65 | C6A U7A C9A U10A G41U G42A | 0.192
66 | C6A U7A C9A U10A G41U G42U | 0.717
67 | C6A U7A C9A U10A G28A A29G | 0.227
68 | C6A U7A C9A U10A G28A A29U | 0.156
69 | C6A U7A C9A U10A G28A A29C | 0.433
70 | C6A U7C | 0.264
71 | C6A U7A C9A U10A U17G C18A | 0.619
72 | C6A U7A C9A U10A U17G C18G | 0.391

Row | Variant | exon inclusion enrichment index
73 | C6A U7A C9A U10A U17G C18U | 0.46
74 | C6A U7C C9A | 1.99
75 | C6A U7A C9A U10A G28C | 0.528
76 | C6A U7A C9A U10A G28U | 0.147
77 | C6A U7A C9A U10A G28A | 0.174
78 | C6A U7C C9A U10C A23G C24G | 4.2
79 | C6A U7C C9A U10C A23G C24A | 4.13
80 | C6A U7C C9A U10C A23G C24U | 1.95
81 | C6A U7C C9A U10C A14G G15A | 3.53
82 | C6A U7C C9A U10C A14G G15U | 2.01
83 | C6A U7C C9A U10C A14G G15C | 2.29
84 | C6A U7C C9A U10C A35C C36A | 2.28
85 | C6A U7C C9A U10C A35C C36U | 0.742
86 | C6A U7C C9A U10C A35C C36G | 2.56
87 | C6A U7A C9A U10A G34A | 0.344
88 | C6A U7A C9A U10A G34C | 0.179
89 | C6A U7A C9A U10A G34U | 0.123
90 | C6A U7C C9A U10C A31U U32A | 0.902
91 | C6A U7C C9A U10C A31U U32G | 2.15
92 | C6A U7C C9A U10C A31U U32C | 3.74
93 | C6A U7A C9A U10A U17A C18A | 0.427
94 | C6A U7A C9A U10A U17A C18G | 0.498
95 | C6A U7A C9A U10A U17A C18U | 0.445
96 | C6A U7A C9A U10A G42A G43U | 2.73

Row | Variant | exon inclusion enrichment index
97 | C6A U7A C9A U10A G42A G43A | 2.97
98 | C6A U7A C9A U10A G42A G43C | 3.53
99 | C6A U7A C9A U10A G21U C22G | 0.565
100 | C6A U7A C9A U10A G21U C22U | 0.172
101 | C6A U7A C9A U10A G21U C22A | 0.136
102 | C6A U7A C9A U10A G21A C22U | 0.235
103 | C6A U7A C9A U10A G21A C22A | 0.228
104 | C6A U7A C9A U10A G21A C22G | 0.568
105 | C6A U7C C9A U10C A29U A30G | 3.55
106 | C6A U7C C9A U10C A29U A30C | 2.97
107 | C6A U7C C9A U10C A29U A30U | 1.98
108 | C6A U7A G8C C9A U10A | 0.471
109 | C6A U7A G8C C9A U10C | 1.95
110 | C6A U7A C9A U10A G15C C16U | 0.63
111 | C6A U7A C9A U10A G15C C16A | 0.525
112 | C6A U7A C9A U10A G15C C16G | 0.812
113 | C6A U7A C9A U10A U17C C18U | 0.491
114 | C6A U7A C9A U10A U17C C18G | 0.655
115 | C6A U7A C9A U10A U17C C18A | 0.476
116 | C6A U7A C9A U10A U27A G28A | 0.824
117 | C6A U7A C9A U10A U27A G28C | 0.818
118 | C6A U7A C9A U10A U27A G28U | 0.247
119 | C6A U7C C9A U10C A30U A31C | 2.83
120 | C6A U7C C9A U10C A30U A31U | 2.77

Row | Variant | exon inclusion enrichment index
121 | C6A U7C C9A U10C A30U A31G | 3.73
122 | C6A U7C C9A U10C | 3.63
123 | C6A U7C C9A U10A | 1.36
124 | C6A U7A C9A U10A G13U A14G | 0.553
125 | C6A U7A C9A U10A G13U A14C | 1.14
126 | C6A U7A C9A U10A G13U A14U | 0.534
127 | C6A U7C C9A U10C A37C | 3.93
128 | C6A U7C C9A U10C A37U | 2.49
129 | C6A U7C C9A U10C A37G | 4.15
130 | C6A U7C C9A U10C A25U G26U | 2.49
131 | C6A U7C C9A U10C A25U G26A | 3.54
132 | C6A U7C C9A U10C A25U G26C | 3.26
133 | C6A U7C C9A U10C A14U | 1.94
134 | C6A U7C C9A U10C A14G | 4.78
135 | C6A U7C C9A U10C A14C | 3.07
136 | C6A U7A C9A U10A U27G G28C | 0.369
137 | C6A U7A C9A U10A U27G G28U | 0.003
138 | C6A U7A C9A U10A U27G G28A | 0.869
139 | C6A U7C C9A U10C A30G A31U | 1.6
140 | C6A U7C C9A U10C A30G A31C | 0.677
141 | C6A U7C C9A U10C A30G A31G | 1.7
142 | C6A U7A C9A U10A G43C C44U | 0.606
143 | C6A U7A C9A U10A G43C C44G | 3.16
144 | C6A U7A C9A U10A G43C C44A | 2.09

Row | Variant | exon inclusion enrichment index
145 | C6A U7C C9A U10C A25G G26A | 5.01
146 | C6A U7C C9A U10C A25G G26C | 4.03
147 | C6A U7C C9A U10C A25G G26U | 4.03
148 | C6A U7A C9A U10A G38A A39G | 0.862
149 | C6A U7A C9A U10A G38A A39U | 0.0204
150 | C6A U7A C9A U10A G38A A39C | 0.579
151 | C6A U7A G8C C9G U10A | 0.781
152 | C6A U7A C9A U10G G11C | 1.95
153 | C6A U7A C9A U10G G11U | 1.14
154 | C6A U7A C9A U10G G11A | 1.24
155 | C6A U7A C9A U10A G46U A47G | 0.587
156 | C6A U7A C9A U10A G46U A47C | 1.79
157 | C6A U7A C9A U10A G46U A47U | 1.03
158 | C6A U7A C9A U10A G34A A35G | 0.208
159 | C6A U7A C9A U10A G34A A35C | 0.52
160 | C6A U7A C9A U10A G34A A35U | 0.216
161 | C6A U7A C9U | 0.615
162 | C6A U7A C9G | 0.28
163 | C6A U7C C9A U10C A23G | 4.36
164 | C6A U7C C9A U10C A23U | 2.78
165 | C6A U7C C9A U10C A23C | 3.27
166 | C6A U7A C9G U10G | 0.0939
167 | C6A U7A C9G U10A | 0.286
